Measurements reported in paper PMC10383195, “Interactions of the Kv1.1 Channel with Peptide Pore Blockers: A Fluorescent Analysis on Mammalian Cells” (Membranes, 2023).
Where a chain is given by its changes, count along the chain named. Numbered stars: 1 amine (or outer) side, 2 acyl side, 3 side chain; on linkers, the order of the positions; unused ones are H or OH. Bridge positions count the residues as written; N and C are the ends. Square brackets hold non-standard residues; d marks the D form. Peptide text beside a SMILES is read from it. * marks the point of attachment. X1 = N=c1ccc2c(-c3ccccc3C(=O)*)c3ccc(N)c(S(=O)(=O)O)c3oc-2c1S(=O)(=O)O; NMeGABA = CN(CCCC(=O)[*:2])[*:1]

Experiments:
Kv1.3 channel = details: read-out: Kd of A-HgTx with Kv1.3 channel; cited from earlier work
[1] = target: T1, K-Kv1.1 channel (hKv1.1S369T with mKate2) (Homo sapiens, UniProt Q09470, S369T); test: Whole-cell patch-clamp of currents through K-Kv1.1 in Neuro2a cells; type: cell-based
T1 construct: these fragments were combined and amplified using terminal primers to obtain the whole mutated gene; expressed in transfected cells; host or cells: mouse neuroblastoma Neuro2a cells, transient transfection with pmKate2-KCNA1m1
Procedure: Membrane ion currents through the K-Kv1.1 channel were recorded at room temperature by the patch-clamp technique using the standard whole-cell configuration as described earlier.
Briefly, Neuro2a cells attached to coverslips (10 mm in diameter) pre-coated with poly-D-lysine were immersed in a buffer (140 mM NaCl, 2.8 mM KCl, 2 mM MgCl2, 2 mM CaCl2, 10 mM glucose, 10 mM HEPES, pH 7.4) and perfused continuously. Micropipettes with a tip resistance of 6–8 MΩ were filled with a pipette solution containing 140 mM KCl, 6 mM CaCl2, 2 mM MgCl2, 2 mM MgATP, 0.4 mM NaGTP, 10 mM HEPES, 20 mM BAPTA/KOH (pH 7.3). The patches were routinely held at a holding potential of −40 mV. The potential was changed from −70 to +70 mV (20 mV step) using 200 ms pulses, which were applied incrementally with an interval of 20 s. Finally, the potential returned to the holding potential.
Cells were measured 24–48 h after transfection. The cells were selected by K-Kv1.1 fluorescence. The cells were analyzed if their input resistance was more than 350 MΩ. The currents were recorded using an EPC-10 amplifier (HEKA Elektronik, Stuttgart, Germany).
[…] The toxins were dissolved in a complete medium.
The measured concentration dependence of current inhibition through the K-Kv1.1 channel by A-HgTx was analyzed with the following equation:Irel(L) = 100/(1 + (IC50/L)^h) (1) where Irel is a decrease in current (%), L is the concentration of A-HgTx, IC50 is the concentration of A-HgTx that induces a 50% decrease in current, and h is the Hill coefficient.

Kv1.3 (Homo sapiens) = Kv1.3 (Homo sapiens) (UniProt P22001); details: cited from earlier work
Sequence of Kv1.3 (Homo sapiens) (P22001 whole entry): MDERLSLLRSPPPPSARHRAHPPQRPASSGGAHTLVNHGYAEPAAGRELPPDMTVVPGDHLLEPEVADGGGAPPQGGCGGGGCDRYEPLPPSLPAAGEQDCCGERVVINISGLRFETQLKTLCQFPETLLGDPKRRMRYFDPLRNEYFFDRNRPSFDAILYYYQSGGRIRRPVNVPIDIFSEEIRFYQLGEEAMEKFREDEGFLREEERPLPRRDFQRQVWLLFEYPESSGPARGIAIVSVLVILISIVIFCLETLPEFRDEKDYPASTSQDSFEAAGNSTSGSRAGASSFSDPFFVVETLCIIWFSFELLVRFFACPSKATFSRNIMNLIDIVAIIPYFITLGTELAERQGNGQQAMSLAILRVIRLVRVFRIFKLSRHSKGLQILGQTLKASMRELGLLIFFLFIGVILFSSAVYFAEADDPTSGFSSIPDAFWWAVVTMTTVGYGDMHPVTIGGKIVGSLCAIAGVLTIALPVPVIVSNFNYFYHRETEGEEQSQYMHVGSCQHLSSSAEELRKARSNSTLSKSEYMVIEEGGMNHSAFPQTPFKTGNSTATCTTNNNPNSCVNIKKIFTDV

[2] = test system: non-transfected Neuro2a cells; details: cited from earlier work
[3] = target: T2, mKate2-tagged human Kv1.1 (S369T) channel (K-Kv1.1) (Homo sapiens, UniProt Q09470, S369T); test: Competitive binding of peptide pore blocker and A-HgTx to K-Kv1.1 on the plasma membrane of Neuro2a cells (confocal microscopy)
T2 construct: these fragments were combined and amplified using terminal primers to obtain the whole mutated gene; expressed in transfected cells; host or cells: mouse neuroblastoma Neuro2a cells, transient transfection with pmKate2-KCNA1m1
Procedure: To analyze the binding of A-HgTx, A-HgTx (0.25–4 nM) was added to cells in a complete medium for 60 min. To analyze competitive binding, A-HgTx (2 nM), together with the selected peptide (0.05–160 nM), was added to cells in a complete medium for 60 min.
To compare ligand binding with closed and open channels, ligands were added to cells (60 min, 37 °C) in a buffer (20 mM HEPES pH 7.4, 0.9 mM CaCl2, 0.5 mM MgCl2, 0.1% BSA) supplemented with 4 mM KCl and 150 mM NaCl (Na^+ buffer) or with 150 mM KCl (K^+ buffer).
The fluorescence of the K-Kv1.1 and K-Kv1.1wt channels was excited at 561 nm and detected in the 650–700 nm region. A-HgTx fluorescence was excited at 488 nm and detected in the 495–535 nm region. Sequential scanning was used to measure the cellular distributions of A-HgTx and mKate2 fluorescence in order to avoid interference of mKate2 fluorescence with cellular autofluorescence excited at 488 nm.
Quantitative analysis of the interaction of A-HgTx with K-Kv1.1 was carried out in accordance with the procedure developed previously for A-HgTx and the fluorescently labeled Kv1.3 channel. Briefly, the regions of interest with K-Kv1.1 on the plasma membrane were selected in the confocal images and used to create binary (0;1) masks that described the membranous distribution of K-Kv1.1. The confocal images of K-Kv1.1 and A-HgTx were multiplied by the corresponding mask, and the average fluorescence intensities of A-HgTx (Ili) and K-Kv1.1 (Ici) corrected for the background signal were calculated for each i-cell. Ratio Ri = Ili/Ici was calculated and averaged over 15–20 cells to obtain the Rav value and the standard deviation.
To analyze the competitive binding of the studied peptide pore blocker and A-HgTx to K-Kv1.1 on the cellular membrane, Rav data were plotted depending on the blocker concentration (C) at the constant A-HgTx concentration (L) and fitted with the following equation:Rav(C) = Rav0/(1 + C/DC50)(3) where DC50 is the blocker concentration displacing 50% of A-HgTx from the complex with K-Kv1.1, and Rav0 is Rav at C = 0.
The apparent dissociation constant (Kap) of the complex between the studied blocker and the K-Kv1.1 channel was calculated using the Cheng–Prusoff equation:Kap = DC50/(1 + L/Kd).(4)
Two independent experiments were performed, and the Kav data were averaged and presented as mean ± SEM. Fifteen to twenty-five treated cell images were the average value for each point on the curves of A-HgTx binding to the K-Kv1.1 channel.

[4] = target: T3, Kv1.1 (K-Kv1.1, mKate2-tagged) (Homo sapiens, UniProt Q09470); test: competitive confocal fluorescence binding with A-HgTx, complete medium
T3 chain: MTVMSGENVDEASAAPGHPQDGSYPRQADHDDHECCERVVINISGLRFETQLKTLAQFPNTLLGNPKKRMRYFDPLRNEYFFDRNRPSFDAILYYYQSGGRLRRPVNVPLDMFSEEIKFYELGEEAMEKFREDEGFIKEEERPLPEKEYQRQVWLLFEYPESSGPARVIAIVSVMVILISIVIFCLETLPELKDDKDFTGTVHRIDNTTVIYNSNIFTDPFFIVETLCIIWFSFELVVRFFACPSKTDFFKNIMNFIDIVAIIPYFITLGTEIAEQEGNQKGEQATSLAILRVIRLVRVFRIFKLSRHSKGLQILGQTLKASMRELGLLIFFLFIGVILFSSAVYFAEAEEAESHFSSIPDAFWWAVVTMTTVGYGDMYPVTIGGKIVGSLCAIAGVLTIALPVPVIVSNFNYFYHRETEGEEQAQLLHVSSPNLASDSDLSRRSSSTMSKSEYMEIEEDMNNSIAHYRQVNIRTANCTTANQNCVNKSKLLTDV

[5] = target: T3, Kv1.1 (K-Kv1.1, mKate2-tagged); test: competitive confocal fluorescence binding with A-HgTx, K+ buffer (open state)
[6] = target: T3, Kv1.1 (K-Kv1.1, mKate2-tagged); test: confocal fluorescence binding on Neuro2a cells, Na+ buffer (closed state)
[7] = target: T3, Kv1.1 (K-Kv1.1, mKate2-tagged); test: confocal fluorescence binding on Neuro2a cells, K+ buffer (open state)
[8] = target: T3, Kv1.1 (K-Kv1.1, mKate2-tagged); test: confocal fluorescence binding on Neuro2a cells, complete medium

For `CC[C@H](C)[C@@H]1NC(=O)CNC(=O)[C@H](Cc2ccccc2)NC(=O)[C@H](CCC(N)=O)NC(=O)[C@H](C)NC(=O)[C@H](CCCCN)NC(=O)[C@@H]2CSSC[C@@H](C(=O)N[C@@H](Cc3ccc(O)cc3)C(=O)N3CCC[C@H]3C(=O)N[C@@H](Cc3c[nH]cn3)C(=O)O)NC(=O)[C@H](CCCCN)NC(=O)[C@@H]3CSSC[C@H](NC(=O)[C@H](CCC(N)=O)NC(=O)[C@H](CCCCN)NC(=O)[C@@H]4CCCN4C(=O)[C@H](CO)NC(=O)[C@H]([C@@H](C)O)NC(=O)[C@@H](NC(=O)[C@H](CCCCN)NC(=O)[C@@H](NC(=O)[C@H](CC(=O)O)NC(=O)[C@@H](NC(=O)[C@@H](NC(=O)[C@@H](NC(=O)CCCN(C)C(=O)c4ccccc4-c4c5ccc(=N)c(S(=O)(=O)O)c-5oc5c(S(=O)(=O)O)c(N)ccc45)[C@@H](C)O)C(C)C)[C@@H](C)CC)C(C)C)CSSC[C@H](NC(=O)[C@H](CCCCN)NC(=O)[C@H](C)NC(=O)CNC(=O)[C@H](C)NC(=O)[C@H](CCCNC(=N)N)NC1=O)C(=O)N[C@@H](CCSC)C(=O)N[C@@H](CC(N)=O)C(=O)NCC(=O)N[C@@H](CCCCN)C(=O)N3)C(=O)N[C@@H](CC(C)C)C(=O)N1CCC[C@H]1C(=O)N1CCC[C@H]1C(=O)N2` [A-HgTx] (X1-[NMeGABA]TVIDVKCTSPKQCLPPCKAQFGIRAGAKCMNGKCKCYPH-OH; disulfide 8-30, 14-35, 18-37; C-terminus assumed), the Kd (Kv1.3 channel) is listed as 300 ± 130 pM, the “decrease in the amplitude of the current through K-Kv1.1” value ([1]; 5 nM A-HgTx, applied voltage from −30 to 70 mV) is listed as ~50% and the IC50 ([1]; +50 mV voltage, mean ± SEM (n = 6), SEM, read-out: IC50 (concentration of A-HgTx inhibiting current by 50%)) is listed as 4800 ± 200 pM. The maximum current inhibition ([1]; +50 mV, A-HgTx above 15 nM) was “ca. 75%”.

In the case of `CC[C@H](C)[C@@H]1NC(=O)CNC(=O)[C@H](Cc2ccccc2)NC(=O)[C@H](CCC(N)=O)NC(=O)[C@H](C)NC(=O)[C@H](CCCCN)NC(=O)[C@@H]2CSSC[C@@H](C(=O)N[C@@H](Cc3ccc(O)cc3)C(=O)N3CCC[C@H]3C(=O)N[C@@H](Cc3c[nH]cn3)C(=O)O)NC(=O)[C@H](CCCCN)NC(=O)[C@@H]3CSSC[C@H](NC(=O)[C@H](CCC(N)=O)NC(=O)[C@H](CCCCN)NC(=O)[C@@H]4CCCN4C(=O)[C@H](CO)NC(=O)[C@H]([C@@H](C)O)NC(=O)[C@@H](NC(=O)[C@H](CCCCN)NC(=O)[C@@H](NC(=O)[C@H](CC(=O)O)NC(=O)[C@@H](NC(=O)[C@@H](NC(=O)[C@@H](N)[C@@H](C)O)C(C)C)[C@@H](C)CC)C(C)C)CSSC[C@H](NC(=O)[C@H](CCCCN)NC(=O)[C@H](C)NC(=O)CNC(=O)[C@H](C)NC(=O)[C@H](CCCNC(=N)N)NC1=O)C(=O)N[C@@H](CCSC)C(=O)N[C@@H](CC(N)=O)C(=O)NCC(=O)N[C@@H](CCCCN)C(=O)N3)C(=O)N[C@@H](CC(C)C)C(=O)N1CCC[C@H]1C(=O)N1CCC[C@H]1C(=O)N2` [HgTx1, hongotoxin 1] (H-TVIDVKCTSPKQCLPPCKAQFGIRAGAKCMNGKCKCYPH-OH; disulfide 7-29, 13-34, 17-36), the “decrease in the peak current amplitude” value ([1]; HgTx1 2 nM, applied voltage from −10 to 70 mV, n = 10) is reported as 73 ± 8%.

In the case of “A-HgTx (Atto-labelled hongotoxin 1) (from UniProt P59847)”, the Kd (Kv1.3 (Homo sapiens)) is given as 300 pM.

For charybdotoxin [ChTx], the “sensitivity of background currents to the blocker” value [2] is given as “insensitive”, the “effect of channel state (closed or open) on affinity of K-Kv1.1 for the peptide” value ([3]; A-HgTx (2 nM) displacement compared in complete medium, Na+ and K+ buffers) is given as “does not affect the affinity” and the “effect on binding of A-HgTx (2 nM) to K-Kv1.1” value ([3]; ChTx 100 nM) is given as “does not affect the binding of A-HgTx to K-Kv1.1”.

B1: hongotoxin 1 (HgTx1) (peptide)
chain: TVIDVKCTSPKQCLPPCKAQFGIRAGAKCMNGKCKCYPH
B1 showed a Kd [4] of 30 pM and a Kd [5] of 50 pM.

B2: Atto 488-hongotoxin 1 (A-HgTx) (peptide)
chain: B1 chain
B2 showed a Kd [6] of 900 pM, a Kd [7] of 800 pM and a Kd [8] of 700 pM.

B3: margatoxin (MgTx) (peptide)
chain: B1 chain with V2I, D4N, I23Q, R24S
In the case of B3, the Kd [4] is reported as 300 pM and the Kd [5] is reported as 500 pM.

B4: Ce1 (peptide)
chain: TVINVKCTSPKQCLKPCKDLYGPHAGAKCMNGKCKCYNN
For B4, the Kd [4] was 11000 pM and the Kd [5] was 18000 pM.
